Measurements taken from patent US20250263502A1 (published 2025).
Substitutions are numbered along the chain they refer to.

What was measured:
[1] = target: T1, ectodomain of human CD98hc (human, UniProt P08195 105-529); assay: ELISA, purified VNAR-Fc titrated on coated CD98hc
T1 chain: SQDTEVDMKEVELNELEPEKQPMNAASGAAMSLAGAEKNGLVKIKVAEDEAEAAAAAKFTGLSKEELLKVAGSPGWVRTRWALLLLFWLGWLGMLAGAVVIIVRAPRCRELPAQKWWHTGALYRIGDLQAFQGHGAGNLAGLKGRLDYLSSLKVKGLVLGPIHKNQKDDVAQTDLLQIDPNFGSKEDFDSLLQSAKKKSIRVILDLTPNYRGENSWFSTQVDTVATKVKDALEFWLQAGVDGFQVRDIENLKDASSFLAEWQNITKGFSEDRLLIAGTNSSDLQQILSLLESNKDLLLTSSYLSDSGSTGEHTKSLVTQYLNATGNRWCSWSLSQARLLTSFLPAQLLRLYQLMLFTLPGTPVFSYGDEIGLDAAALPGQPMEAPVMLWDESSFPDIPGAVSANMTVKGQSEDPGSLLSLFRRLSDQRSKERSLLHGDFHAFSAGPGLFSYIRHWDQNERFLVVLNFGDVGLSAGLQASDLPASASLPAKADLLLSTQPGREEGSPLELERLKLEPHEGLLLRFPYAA

[2] = target: T1, ectodomain of human CD98hc; assay: ELISA, expression medium of VNAR-hFc on coated protein
[3] = target: T1, ectodomain of human CD98hc; assay: ELISA, VNAR-hFc titrated on coated human CD98hc

B1: VNAR clone F1 fused N-terminally to human IgG1 Fc (VNAR-hFc) (Fc fusion)
chain: ARVDQTPQTITKEEGESLTINCVLRVHGRALASTSWYRKKSGSTREETISKGGRYVETVNSGSKSFSLRINDLTVEDSGTYRCNVYGLSSGDIEGVKKIDVYGDGTAVTVNA
notes: Bivalent VNAR-Fc from Expi293 cells; also called F1-hFc; not shown: human IgG1 Fc (hinge, CH2 and CH3) as encoded by vector pFUSE-hIgG1e3-Fc2
Question: Which EC50 [1] does the source give for B1 here?
Answer: 3 nM

Question: What about the “Binding [relative units]” value [2] of the same binder?
Answer: 3.76 relative units

B2: VNAR clone D1 fused N-terminally to human IgG1 Fc (VNAR-hFc) (Fc fusion)
chain: ARVDQTPQTITKEEGESLTINCVLRHNYSALASTSWYRKKSGSTREETISKGGRYVETVNSGSKSFSLRINDLTVEDSGTYRCNVYGISFIEEKIRYDFDVYGDGTAVTVNA
notes: Bivalent VNAR-Fc from Expi293 cells; also called D1-hFc; not shown: human IgG1 Fc (hinge, CH2 and CH3) as encoded by vector pFUSE-hIgG1e3-Fc2
Question: Which EC50 [1] does the source give for B2 here?
Answer: 28 nM

Question: What about the “Binding [relative units]” value [2] of the same binder?
Answer: 3.5 relative units

B3: VNAR clone H6 fused N-terminally to human IgG1 Fc (VNAR-hFc) (Fc fusion)
chain: ARVDQTPQTITKEEGESLTINCVLRTHSNALASTSWYRKKSGSTREETISKGGRYVETVNSGSKSFSLRINDLTVEDSGTYRCNVYAFLEIQPNIYHEFDVYGDGTAVTVNA
notes: Bivalent VNAR-Fc from Expi293 cells; not shown: human IgG1 Fc (hinge, CH2 and CH3) as encoded by vector pFUSE-hIgG1e3-Fc2
Question: For B3, which EC50 [1] is on record?
Answer: 6 nM

Question: What about the “Binding [relative units]” value [2] of the same binder?
Answer: 3.31 relative units

B4: VNAR clone H7 fused N-terminally to human IgG1 Fc (VNAR-hFc) (Fc fusion)
chain: ARVDQTPQTITKEEGESLTINCVLRYNNPALASTSWYRKKSGSTREETISKGGRYVETVNSGSKSFSLRINDLTVEDSGTYRCNVYFFPSFLVDKLQSHDVYGDGTAVTVNA
notes: as for B3
Question: Which EC50 [1] does the source give for B4 here?
Answer: 6 nM

Question: And the “Binding [relative units]” value [2]?
Answer: 3.93 relative units

B5: VNAR clone G3 fused N-terminally to human IgG1 Fc (VNAR-hFc) (Fc fusion)
chain: ARVDQTPQTITKETGESLTINCVLRDNNCALSTTYWYRKKSGSTNEENISKGGRYVETVNSGSKSFSLRINDLTVEDSGTYRCKVHFFPSFCNSTSIRSVDVYGGGTVVTVNA
notes: as for B3
Question: Which EC50 [1] does the source give for B5 here?
Answer: 107 nM

Question: And the “Binding [relative units]” value [2]?
Answer: 1.48 relative units

B6: VNAR clone E12 fused N-terminally to human IgG1 Fc (VNAR-hFc) (Fc fusion)
chain: ARVDQTPQTITKEEGESLTINCVLRTQDPALASTSWYRKKSGSTREETISKGGRYVETVNSGSKSFSLRINDLTVEDSGTYRCNVYFLLAPTKTKLQGIDVYGDGTAVTVNA
notes: as for B3
Question: Which results are given for B6?
Answer: EC50 [1]: 56 nM; Binding [relative units] [2]: 2.19 relative units

B7: VNAR clone F12 fused N-terminally to human IgG1 Fc (VNAR-hFc) (Fc fusion)
chain: B1 chain with S90F
notes: Bivalent VNAR-Fc from Expi293 cells; also called F12-hFc; VNAR F12-hFc; not shown: human IgG1 Fc (hinge, CH2 and CH3) as encoded by vector pFUSE-hIgG1e3-Fc2
Question: Which results are given for B7?
Answer: EC50 [1]: 12 nM; Binding [relative units] [2]: 3.99 relative units

B8: F12 variant F12-A01 as VNAR-hFc fusion (Fc fusion)
chain: B1 chain with Y86N, I93K
notes: not shown: human IgG1 Fc (hinge, CH2 and CH3) as encoded by vector pFUSE-hIgG1e3-Fc2
Question: How did the EC50 [3] turn out when B8 was run?
Answer: 10 nM

B9: F12 variant F12-B12 as VNAR-hFc fusion (Fc fusion)
chain: B1 chain with Y86N, I99L
notes: as for B8
Question: With B9 as the binder, how does the EC50 [3] read?
Answer: 10 nM

B10: F12 variant F12-C01 as VNAR-hFc fusion (Fc fusion)
chain: B1 chain with I93S
notes: as for B8
Question: For B10, which EC50 [3] is on record?
Answer: 30 nM

B11: F12 variant F12-E03 as VNAR-hFc fusion (Fc fusion)
chain: B1 chain with Y86N, I93Q
notes: as for B8
Question: B11 was tested. Which EC50 [3] did it give?
Answer: 40 nM

B12: F12 variant F12-G02 as VNAR-hFc fusion (Fc fusion)
chain: B1 chain with S89M, S90N, G91V
notes: as for B8
Question: With B12 as the binder, how does the EC50 [3] read?
Answer: 10 nM

B13: F12 variant F12-G04 as VNAR-hFc fusion (Fc fusion)
chain: B1 chain with Y86N
notes: as for B8
Question: With B13 as the binder, how does the EC50 [3] read?
Answer: 30 nM

B14: F12 variant F12-H04 as VNAR-hFc fusion (Fc fusion)
chain: B1 chain with S89M, S90Q
notes: as for B8
Question: For B14, which EC50 [3] is on record?
Answer: 20 nM
